T1: human GIP receptor (human, UniProt P48546 22-466)
T1 sequence (looked up): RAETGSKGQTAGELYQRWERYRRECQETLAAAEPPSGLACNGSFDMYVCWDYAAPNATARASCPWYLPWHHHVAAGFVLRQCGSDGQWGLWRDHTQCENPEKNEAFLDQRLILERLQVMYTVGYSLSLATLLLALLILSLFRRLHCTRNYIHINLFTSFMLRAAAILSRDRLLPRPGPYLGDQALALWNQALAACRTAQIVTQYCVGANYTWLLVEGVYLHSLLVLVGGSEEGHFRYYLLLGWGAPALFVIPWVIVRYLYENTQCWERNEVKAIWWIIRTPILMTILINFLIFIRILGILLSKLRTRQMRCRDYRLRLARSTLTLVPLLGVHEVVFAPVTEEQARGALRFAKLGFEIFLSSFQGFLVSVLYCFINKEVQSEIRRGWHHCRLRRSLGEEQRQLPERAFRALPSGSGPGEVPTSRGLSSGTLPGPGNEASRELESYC


Columns and labels:
Assay in all cases: cell-based or functional assay
human GIP receptor = target: T1, human GIP receptor
human GLP-1 receptor = human GLP-1 receptor (human, UniProt P43220 24-463)
human GCG receptor = human GCG receptor (human, UniProt P47871 26-477)
Chain of human GCG receptor (P47871 26-477): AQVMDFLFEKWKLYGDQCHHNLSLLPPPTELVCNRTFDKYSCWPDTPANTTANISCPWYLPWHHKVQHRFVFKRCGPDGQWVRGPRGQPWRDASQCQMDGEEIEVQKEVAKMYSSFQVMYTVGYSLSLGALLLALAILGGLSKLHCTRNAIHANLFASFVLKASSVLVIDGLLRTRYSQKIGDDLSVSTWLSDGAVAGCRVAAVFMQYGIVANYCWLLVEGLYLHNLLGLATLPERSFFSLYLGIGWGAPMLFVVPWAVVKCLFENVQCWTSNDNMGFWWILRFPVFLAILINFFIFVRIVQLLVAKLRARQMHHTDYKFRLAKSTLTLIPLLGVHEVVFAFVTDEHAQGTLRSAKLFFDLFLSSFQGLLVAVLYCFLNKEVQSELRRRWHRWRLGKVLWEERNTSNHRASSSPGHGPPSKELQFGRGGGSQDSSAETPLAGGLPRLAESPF

| Binder | cAMP EC50, CHO cells stably overexpressing human GIP R (human GIP receptor) [nM] | cAMP Rel. A (%) against human GIP, human GIP R cells (human GIP receptor) [%] | cAMP EC50, HEK-293 cells stably overexpressing human GLP-1 R (human GLP-1 receptor) [nM] | cAMP Rel. A (%) against human GLP-1 (7-37), human GLP-1 R cells (human GLP-1 receptor) [%] | cAMP EC50, HEK-293 cells stably overexpressing human GCG R (human GCG receptor) [nM] | cAMP Rel. A (%) against human GCG, human GCG R cells (human GCG receptor) [%] |
| --- | --- | --- | --- | --- | --- | --- |
| YXQGTXTSDYSIXLDKKAQXAFIEYLLETGPSSGXPPPS (Aib at 2; αMeF at 6; αMeL at 13; Lys 17 side chain AEEAc-AEEAc-γGlu-CO(CH2)18COOH; Aib at 20; Aib at 35; C-terminal amide (NH2)) [Compound 7] | 0.013 | 1390 | 0.01 | 440 | 0.058 | 98.3 |
| YXQGTXTSDYSIXLDKKAQXAFIEYLLETGPSSGQPPPS (Aib at 2; αMeF at 6; αMeL at 13; Lys 17 side chain AEEAc-AEEAc-γGlu-CO(CH2)18COOH; Aib at 20; C-terminal amide (NH2)) [Compound 8] | – | 1510 | – | 152 | 0.071 | 80.3 |
| YXQGTXTSDYSILLDKKAQXAFIEFLLESHPSSXHPPXS (Aib at 2; αMeF at 6; Lys 17 side chain AEEAc-AEEAc-γGlu-CO(CH2)18COOH; Aib at 20; Aib at 34; Ac3c at 38; C-terminal amide (NH2)) [Compound 42] | 0.07 | 259 | 0.009 | 489 | 0.495 | 11.5 |
| YXQGTXTSDYSIXLDKKAQXAFIEYLLESHPSSGAPPXS (Aib at 2; αMeF at 6; αMeL at 13; Lys 17 side chain AEEAc-AEEAc-γGlu-CO(CH2)18COOH; Aib at 20; Ac3c at 38; C-terminal amide (NH2)) [Compound 3] | 0.024 | 754 | – | 100 | 0.12 | 47.5 |
| YXQGTXTSDYSIXLDKKAQXAFIEYLLESHPSSXHPPXS (Aib at 2; αMeF(2F) at 6; αMeL at 13; Lys 17 side chain AEEAc-AEEAc-γGlu-CO(CH2)18COOH; Aib at 20; Aib at 34; Ac3c at 38; C-terminal amide (NH2)) [Compound 43] | 0.041 | 441 | 0.01 | 440 | 0.127 | 44.9 |
| YXQGTXTSDYSIFLDKKAQXAFIEFLLESHPSSGAPPXS (Aib at 2; αMeF(2F) at 6; Lys 17 side chain AEEAc-AEEAc-γGlu-CO(CH2)18COOH; Aib at 20; Ac3c at 38; C-terminal amide (NH2)) [Compound 10] | 0.021 | 862 | 0.047 | 93.6 | 0.076 | 75 |
| YXHGTXTSDYSIXLDKKAQXAFIEYLLEXHPSSGQPPPS (Aib at 2; αMeF(2F) at 6; αMeL at 13; Lys 17 side chain AEEAc-AEEAc-γGlu-CO(CH2)18COOH; Aib at 20; Aib at 29; C-terminal amide (NH2)) [Compound 6] | 0.014 | 1290 | 0.02 | 220 | 0.058 | 98.3 |

From patent US20250129135A1, “Multi-Agonist and Use Thereof” (priority 2021, published 2025)
